Key:
[1] = target: the molecule itself; assay: 15N relaxation (rotational correlation time against concentration); 15N-XIAP-UBA at 0.16-1.9 mM; T1 and T2 at 298 K; non-linear fit of the rotational correlation time; dimer to monomers
[2] = target: T1, human ubiquitin (mono-ubiquitin) (human, UniProt P0CG48 1-76); assay: NMR titration; 15N-labelled XIAP-UBA (0.5 mM, about 0.3 mM at the last point, predominantly monomeric) titrated with unlabelled monoUb (to molar ratio 5.5), K48-Ub2 or LL-Ub2 (to 2.5); 1H-15N HSQC chemical shift perturbation; 298 K; 20 mM BisTris-HCl pH 6.7, 150 mM NaCl, 5 mM DTT; settings: both partners purified
T1 construct: ubiquitin, human, the mature 76-residue protein (C-terminal diglycine Gly75-Gly76); Used unlabelled or 15N-labelled

[3] = target: T2, linear-linked diubiquitin (UniProt P0CG48 1-76; P0CG48 1-76); assay: as above; settings: both partners purified
T2 construct: ubiquitin, mature 76-residue protein, first unit; its C-terminal Gly is joined to the N-terminal Met of the next unit; ubiquitin, mature 76-residue protein, second unit; Unlabelled; also called LL-Ub2; linear-linked Ub2

Kd [2]: 249 ± 19 µM
Kd [3]: 59 ± 11 µM
B1: XIAP-UBA (UBA domain of X-linked inhibitor of apoptosis protein, residues 365-423) (domain or fragment, human, UniProt P98170 365-423, looked up)
chain: RIDDTIFQNPMVQEAIRMGFSFKDIKKIMEEKIQISGSNYKSLEVLVADLVNAQKDSMQ
notes: PDB 2KNA holds the longer construct 357-449; Used 15N- or 13C/15N-labelled or unlabelled; The tags are separated from XIAP-UBA by a thrombin site (LVPRG); also called XIAP UBA domain; XIAP-UBA WT; source: E. coli BL21 (DE3), purified
Kd [1]: ~900 µM
stoichiometry N [1]: 2

Source: paper PMC3240630, “Structural Analysis of the UBA Domain of X-linked Inhibitor of Apoptosis Protein Reveals Different Surfaces for Ubiquitin-Binding and Self-Association” (PLoS ONE, 2011)
